The values that follow come from publication PMC5389901.

The target in this data set is INSM1 ZF4-5 (Homo sapiens, UniProt Q01101 424-497). Kind of data set: ITC.
Chain of INSM1 ZF4-5 (Q01101 424-497): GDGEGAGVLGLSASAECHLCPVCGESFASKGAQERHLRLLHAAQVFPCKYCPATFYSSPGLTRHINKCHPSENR

B1: INSM1 consensus dsDNA (dsDNA)
DNA 1: TGTCAGGGGGCA
DNA 2: TGCCCCCTGACA
Regarding B1, the Kd came out at 21.8 µM.

What is called Kd is a measure of binding affinity in units of concentration. A lower Kd goes with a tighter complex.
